Test results as given in PMC5717070.

Target: Solanum tuberosum aspartic protease plant-specific insert (saposin-like domain), recombinant (Solanum tuberosum)
Test: AUC; sedimentation equilibrium, 26-28 uM PSI, 27 mM sodium phosphate pH 3.0, 140 mM NaCl, 20 °C, single ideal species model; monomer to dimer

Solanum tuberosum aspartic protease plant-specific insert (saposin-like domain), recombinant (domain or fragment)
stoichiometry N: 2
